Experiment: Capillary isoelectric focussing (pI)
Format: physicochemical
Conditions: HEK293F expression product
Method: Protocol 5: Capillary Isoelectric Focussing
• PA 800 plus (AB SCIEX) • Anolyte Solution: 200 mM Phosphoric Acid (Sigma-Aldrich #345 245). • 4.3M Urea (Sigma-Aldrich #U0631) in water. • Catholyte Solution: 300 mM Sodium Hydroxide. • 3M Urea (Sigma-Aldrich #U0631) in cIEF Gel (Beckman Coulter #477497). • Chemical Mobiliser: 350 mM Acetic Acid (Sigma-Aldrich #537 020). • Pharmalyte 3-10 (GE Healthcare 17-0456-01). • Cathodic Stabiliser: 500 mM Arginine (Sigma-Aldrich #A5006). • cIEF Peptide markers PI 4-10 (Beckman Coulter # A58481). • Anodic Stabiliser: 200 mM Iminodiacetic Acid (Sigma-Aldrich #220 000). • Neutral Capillary, 50 μm i.d.×45 cm, (Beckman Coulter #477 441)
• Turn on the PA800+ machine and UV lamp, allowing it to warm up 30 mins before use. • Clean the system electrodes and interface block with a damp Kimwipe. • Prepare buffer trays as shown, with 1.5 mL reagent per vial, 1 mL of water in the waste and place in the system. • 1. DDI water • 2. Anolyte • 3. Urea Solution • 4. 3M urea/cIEF Gel • 5. Chemical Mobilizer • 6. Waste • 7. Catholyte • 8. Chemical Mobilizer • 9. BI (Inlet Buffer Tray) • 10. BO (Outlet Buffer Tray) • NOTE. Each set of buffer vials is good for 6 consecutive runs or for 24 hours inside the instrument. • Insert the capillary cartridge into the system and close the front panel. • NOTE. […] When the capillary is not in use, submerge the capillary ends in vials filled with DDI water. • Prepare cIEF master mix using the table below. Dispense each reagent into a centrifuge tube, vortex 1 min, invert every 15-20 sec to ensure complete mixing and store at 2° C. to 8° C. for up to 1 day.
• Desalt and concentrate each antibody (to about 5 mg/ml) in 2M urea using Amicon Ultra 0.5 mL centrifugal filters (Sigma Z677108). • Mix 200 μL of master mix with 10 μL of protein, vortex the cIEF sample for 1 min, inverting the tube every 15-20 sec, then centrifuge at high speed to remove any air bubbles. Transfer 100 μL of sample into a micro vial. Place the micro vial into a universal plastic vial and cap it with a blue cap. Then place the sample vial in the inlet sample tray. • Run the “cIEF Conditioning—PA 800 plus.met” method to condition the column. • Rinse for 5 min at 50 psi with Chemical Mobilizer. See FIG. 2.10. • 2 Rinse for 2 min at 50 psi with DDI water. • 3 Rinse for 5 min at 50 psi with cIEF gel. • 4 Submerge both of the capillary ends in vials filled with DDI water. • Use the “cIEF Separation—PA 800 plus.met” method to create a sequence containing all protein samples and a blank. • Rinse for 3 min at 50 psi with Urea Solution. See FIG. 2.11. • Rinse for 2 min at 50 psi with DDI water. • Inject sample for 99.0 sec at 25 psi. • Water dip by submerging both capillary ends in DDI water. • Focusing step, 15 min at 25 kV under normal polarity (Time=0). • Chemical mobilization, 30 min at 30 kV under normal polarity (Time=15 min). • Stop data collection (Time=45 min). • Rinse for 2 min at 50 psi with DDI water (Time=45.10 min). • Submerged both of the capillary ends in DDI water (Time=47.20 min). • End the method (Time=47.30 min). • Put the “cIEF Shutdown—PA 800 plus.met” method at the end of the sequence to rinse the capillary and turn off the UV. • Rinse for 2 min at 50 psi with DDI water. See FIG. 2.12. • Rinse for 5 min at 50 psi with cIEF gel. • Turn off the UV lamp. • Submerge both of the capillary ends in vials filled with DDI water. • For short term storage (1 to 3 days), leave the capillary on the instrument. […]

B1: Ab1 (antibody, V domains shown)
VH: EVQLVESGGDLVKPGGSLKLSCAASGFTFSSYGMSWVRQTPDKRLEWVATISSGGSYTYYPDSVKGRFTISRDNAKNTLYLQMSSLKSEDTAMYYCARHPIYYTYDDTMDYWGQGTSVTVSS
VL: ENVLTQSPAIMAASPGEKVTMTCSASSSVSSGNFHWYQQKPGTSPKLWIYRTSNLASGVPARFSGSGSGTSYSLTISSMEAEDAATYYCQQWSGYPWTFGGGTKLEIK
pI: 8.05

B2: Ab2: anti-AXL antibody, VH SEQ ID NO. 2, VL SEQ ID NO. 5, constant region derived from human antibodies (antibody, V domains shown)
VH: MGFKMESQFQVFVFVFLWLSGVDGQVQLVESGGGVVQPGRSLRLSCAASGFTFSSYGMSVRQAPGKGLEWVATISSGGSYTYYPDSVKGRFTISRDNSKNTLYLQMNSLRAEDTAVYYCARHPIYYTYDDTMDYWGQGTTVTVSS
VL: MGFKMESQFQVFVFVFLWLSGVDGEIVLTQSPATLSLSPGERATLSCSASSSVSSGNFHWYQQKPGLAPRLLIYRTSNLASGIPDRFSGSGSGTDFTLTISRLEPEDFAVYYCQQWSGYPWTFGPGTKVDIK
modifications: human constant regions; Synthetic heavy chain variable region 1H12RHA; Synthetic light chain variable region 1H12RKA
notes: 5, constant region derived from human antibodies
pI: 8.06

B3: Ab3: anti-AXL antibody, VH SEQ ID NO. 2, VL SEQ ID NO. 7, constant region derived from human antibodies (antibody, V domains shown)
VH: MGFKMESQFQVFVFVFLWLSGVDGQVQLVESGGGVVQPGRSLRLSCAASGFTFSSYGMSVRQAPGKGLEWVATISSGGSYTYYPDSVKGRFTISRDNSKNTLYLQMNSLRAEDTAVYYCARHPIYYTYDDTMDYWGQGTTVTVSS
VL: MGFKMESQFQVFVFVFLWLSGVDGEIVLTQSPGTLSLSPGERATLSCSASSSVSSGNFHWYQQKPGLAPRLLIYRTSNLASGIPARFSGSGSGTDFTLTISSLEPEDFAVYYCQQWSGYPWTFGGGTKLEIK
modifications: human constant regions; Synthetic heavy chain variable region 1H12RHA; Synthetic light chain variable region 1H12RKB
notes: 7, constant region derived from human antibodies
pI: 8.15

B4: Ab4: anti-AXL antibody, VH SEQ ID NO. 3, VL SEQ ID NO. 5, constant region derived from human antibodies (antibody, V domains shown)
VH: MGFKMESQFQVFVFVFLWLSGVDGEVQLVESGGGLVQPGGSLRLSCAASGFTFSSYGMSWVRQAPGKGLEWVATISSGGSYTYYPDSVKGRFTISRDNAKNSLYLQMNSLRAEDTAVYYCARHPIYYTYDDTMDYWGQGTLVTVSS
VL: MGFKMESQFQVFVFVFLWLSGVDGEIVLTQSPATLSLSPGERATLSCSASSSVSSGNFHWYQQKPGLAPRLLIYRTSNLASGIPDRFSGSGSGTDFTLTISRLEPEDFAVYYCQQWSGYPWTFGPGTKVDIK
modifications: human constant regions; Synthetic heavy chain variable region 1H12RHB; Synthetic light chain variable region 1H12RKA
notes: as for B2
pI: 7.56

B5: Ab5: anti-AXL antibody, VH SEQ ID NO. 3, VL SEQ ID NO. 7, constant region derived from human antibodies (antibody, V domains shown)
VH: MGFKMESQFQVFVFVFLWLSGVDGEVQLVESGGGLVQPGGSLRLSCAASGFTFSSYGMSWVRQAPGKGLEWVATISSGGSYTYYPDSVKGRFTISRDNAKNSLYLQMNSLRAEDTAVYYCARHPIYYTYDDTMDYWGQGTLVTVSS
VL: MGFKMESQFQVFVFVFLWLSGVDGEIVLTQSPGTLSLSPGERATLSCSASSSVSSGNFHWYQQKPGLAPRLLIYRTSNLASGIPARFSGSGSGTDFTLTISSLEPEDFAVYYCQQWSGYPWTFGGGTKLEIK
modifications: human constant regions; Synthetic heavy chain variable region 1H12RHB; Synthetic light chain variable region 1H12RKB
notes: as for B3
pI: 7.54
